Data as given in publication PMC4939959.

Molecular target: Prototype foamy virus (PFV) Env glycoprotein, wild type, fully processed (gp18^LP, gp80^SU, gp48^TM), trimeric spike in the viral membrane (Prototype foamy virus (PFV)) (UniProt P14351)
Assay: cryo-electron tomography with subtomogram averaging; Env in situ in the membrane of purified virus particles (wt fixed with 4% paraformaldehyde, iNAB, iFuse), plunge-frozen; single spike, 3-fold symmetry seen in the asymmetric average and then enforced; 3.2, 2.9 and 2.8 nm at FSC = 0.5; step: Env protomers in the trimeric spike

Substance: Prototype foamy virus (PFV) Env glycoprotein, wild type, fully processed (gp18^LP, gp80^SU, gp48^TM), trimeric spike in the viral membrane (from UniProt P14351 1-126; P14351 1-126; P14351 1-126) (complex)
- stoichiometry N: 3
